According to patent publication US20170052184A1 (published 2017):
Ends that are not written are not given here.

How the values were obtained:
[1] = molecular target: T1, WT1STHV biotin labeled HCV core peptide (hepatitis C virus, biotin labeled); test: EIA; Ab 62.5 ng/mL captured on anti-mouse Fc; bt-peptide 500 ng/mL
T1 peptide: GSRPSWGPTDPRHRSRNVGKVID

[2] = molecular target: T2, C113T109N biotin labeled HCV core peptide (hepatitis C virus, also: biotin labeled, position not given here); test: as above
T2 peptide: RGSRPSWGPND

[3] = molecular target: T3, Mut6T110S biotin labeled HCV core peptide (hepatitis C virus); test: as above
[4] = molecular target: T4, Mut1T110N biotin labeled HCV core peptide (hepatitis C virus, biotin labeled); test: as above
T4 peptide: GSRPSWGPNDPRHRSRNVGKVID

[5] = molecular target: T5, C113WT biotin labeled HCV core peptide (hepatitis C virus, also: biotin labeled, position not given here); test: as above
T5 peptide: RGSRPSWGPTD

[6] = molecular target: T1, WT1STHV biotin labeled HCV core peptide; test: EIA; Ab 7.813 ng/mL captured on anti-mouse Fc; bt-peptide 500 ng/mL
[7] = molecular target: T2, C113T109N biotin labeled HCV core …; test: as above
[8] = molecular target: T3, Mut6T110S biotin labeled HCV core …; test: as above
[9] = molecular target: T4, Mut1T110N biotin labeled HCV core …; test: as above
[10] = molecular target: T5, C113WT biotin labeled HCV core peptide; test: as above
[11] = molecular target: T1, WT1STHV biotin labeled HCV core peptide; test: EIA; Ab 125 ng/mL captured on anti-mouse Fc; bt-peptide 500 ng/mL
[12] = molecular target: T2, C113T109N biotin labeled HCV core …; test: as above
[13] = molecular target: T3, Mut6T110S biotin labeled HCV core …; test: as above
[14] = molecular target: T4, Mut1T110N biotin labeled HCV core …; test: as above
[15] = molecular target: T5, C113WT biotin labeled HCV core peptide; test: as above
[16] = molecular target: T1, WT1STHV biotin labeled HCV core peptide; test: EIA; Ab 15.625 ng/mL captured on anti-mouse Fc; bt-peptide 500 ng/mL
[17] = molecular target: T2, C113T109N biotin labeled HCV core …; test: as above
[18] = molecular target: T3, Mut6T110S biotin labeled HCV core …; test: as above
[19] = molecular target: T4, Mut1T110N biotin labeled HCV core …; test: as above
[20] = molecular target: T5, C113WT biotin labeled HCV core peptide; test: as above
[21] = molecular target: T1, WT1STHV biotin labeled HCV core peptide; test: EIA; Ab 1.953 ng/mL captured on anti-mouse Fc; bt-peptide 500 ng/mL
[22] = molecular target: T2, C113T109N biotin labeled HCV core …; test: as above
[23] = molecular target: T3, Mut6T110S biotin labeled HCV core …; test: as above
[24] = molecular target: T4, Mut1T110N biotin labeled HCV core …; test: as above
[25] = molecular target: T5, C113WT biotin labeled HCV core peptide; test: as above
[26] = molecular target: T4, Mut1T110N biotin labeled HCV core …; test: EIA; Ab 250 ng/mL captured on anti-mouse Fc; bt-peptide 500 ng/mL
[27] = molecular target: T5, C113WT biotin labeled HCV core peptide; test: as above

B1: HCV Neo4 monoclonal antibody (antibody, V domains shown)
VH: QIQLKESGPAVIKPSQSLSLTCIVSGFSITSSVYCWQWIRQPPGKGLEWMGRICYDGSVDYSPSITSRGTISRDTSLNKVFFQLSSVTNEDTAMYYCSRENHIDYYDTTYPSFDVWGAGTTVTVSS
VL: DIVLTQSPASLIVSLGQRATISCRASKSVNEYGYTYMHWYQQKPGLPPKLLIYLASNLDSGVPARFSGSGSGTDFTLNIHPVEEEDAATYYCQHSRELPYTFGGGTKLEIKR
Q: Which “signal at 492 nm” value [1] does the source give for B1 here?
A: The value was 1.85 OD 492 nm.

Q: What about the “signal at 492 nm” value [2] of the same binder?
A: Its value is 0.111 OD 492 nm.

Q: And the “signal at 492 nm” value [3]?
A: The value was 1.11 OD 492 nm.

Q: What about the “signal at 492 nm” value [4] of the same binder?
A: The value was 0.139 OD 492 nm.

Q: What about the “signal at 492 nm” value [5] of the same binder?
A: The value was 0.0626 OD 492 nm.

Q: And the “signal at 492 nm” value [6]?
A: The value was 1.04 OD 492 nm.

Q: What about the “signal at 492 nm” value [7] of the same binder?
A: The value was 0.0751 OD 492 nm.

Q: And the “signal at 492 nm” value [8]?
A: The value was 0.132 OD 492 nm.

Q: And the “signal at 492 nm” value [9]?
A: Its value is 0.0729 OD 492 nm.

Q: What about the “signal at 492 nm” value [10] of the same binder?
A: Its value is 0.0731 OD 492 nm.

Q: What about the “signal at 492 nm” value [11] of the same binder?
A: The value was 1.93 OD 492 nm.

Q: And the “signal at 492 nm” value [12]?
A: Its value is 0.0858 OD 492 nm.

Q: And the “signal at 492 nm” value [13]?
A: The value was 1.27 OD 492 nm.

Q: What about the “signal at 492 nm” value [14] of the same binder?
A: The value was 0.204 OD 492 nm.

Q: And the “signal at 492 nm” value [15]?
A: The value was 0.0599 OD 492 nm.

Q: And the “signal at 492 nm” value [16]?
A: The value was 1.42 OD 492 nm.

Q: What about the “signal at 492 nm” value [17] of the same binder?
A: The value was 0.0736 OD 492 nm.

Q: And the “signal at 492 nm” value [18]?
A: Its value is 0.25 OD 492 nm.

Q: And the “signal at 492 nm” value [19]?
A: The value was 0.0771 OD 492 nm.

Q: What about the “signal at 492 nm” value [20] of the same binder?
A: The value was 0.0697 OD 492 nm.

Q: And the “signal at 492 nm” value [21]?
A: Its value is 0.409 OD 492 nm.

Q: And the “signal at 492 nm” value [22]?
A: Its value is 0.0853 OD 492 nm.

Q: And the “signal at 492 nm” value [23]?
A: Its value is 0.0717 OD 492 nm.

Q: And the “signal at 492 nm” value [24]?
A: Its value is 0.0728 OD 492 nm.

Q: What about the “signal at 492 nm” value [25] of the same binder?
A: The value was 0.0765 OD 492 nm.

Q: And the “signal at 492 nm” value [26]?
A: Its value is 0.089 OD 492 nm.

Q: What about the “signal at 492 nm” value [27] of the same binder?
A: Its value is 0.0607 OD 492 nm.
